Reference: article PMC2688778 (Structure (London, England : 1993), 2009)
Positions count from the first letter of the chain named.

Legend:
Test in all cases: fluorescence anisotropy
RecE564 E729A = biological target: T1, RecE564 E729A (Escherichia coli K12, UniProt P15032 564-866, E729A)
T1 sequence: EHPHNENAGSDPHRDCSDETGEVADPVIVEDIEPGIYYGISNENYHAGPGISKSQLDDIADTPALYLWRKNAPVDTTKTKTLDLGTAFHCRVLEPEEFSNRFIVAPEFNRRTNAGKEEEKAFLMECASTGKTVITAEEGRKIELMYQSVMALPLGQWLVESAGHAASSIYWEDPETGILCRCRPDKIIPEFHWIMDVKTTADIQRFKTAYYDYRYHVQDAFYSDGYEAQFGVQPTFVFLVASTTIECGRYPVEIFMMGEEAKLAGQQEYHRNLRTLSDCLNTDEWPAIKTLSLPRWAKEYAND

RecE564 F661A = biological target: T2, RecE564 F661A (Escherichia coli K12, UniProt P15032 564-866, F661A)
T2 sequence: T1 sequence with F98A, A166E

RecE564 S615A = biological target: T3, RecE564 S615A (Escherichia coli K12, UniProt P15032 564-866, S615A)
T3 sequence: T1 sequence with S52A, A166E

RecE564 R744A = biological target: T4, RecE564 R744A (Escherichia coli K12, UniProt P15032 564-866, R744A)
T4 sequence: T1 sequence with A166E, R181A

RecE564 K704A = biological target: T5, RecE564 K704A (Escherichia coli K12, UniProt P15032 564-866, K704A)
T5 sequence: T1 sequence with K141A, A166E

RecE564 P658L = biological target: T6, RecE564 P658L (Escherichia coli K12, UniProt P15032 564-866, P658L)
T6 sequence: T1 sequence with P95L, A166E

B1: F25 (dsDNA)
DNA 1: TAGAGCTTAATTGCTGAATCTGGTG
DNA 2: CACCAGATTCAGCAATTAAGCTCTA
B1 showed a Kd (RecE564 E729A) of 57 ± 3 nM, a Kd (RecE564 F661A) of 118 ± 8 nM and a Kd (RecE564 S615A) of 100 ± 4 nM. It also gave a Kd (RecE564 R744A) of 95 ± 8 nM, a Kd (RecE564 K704A) of 330 ± 50 nM and a Kd (RecE564 P658L) of 80 ± 10 nM.
